Source: publication PMC7293033

Experiments:
GST-UAP56 (human) = GST-UAP56 (human) (UniProt Q13838); test: SPR; UAP56 with API5, FGF2, the API5–FGF2 complex or PBK as analyte proteins; purified recombinant proteins
[1] = target: His-FGF2, LMW FGF2 (residues 135-288, C211S/C229S) (UniProt P09038); test: SPR; settings: concentration series 0.031, 0.063, 0.13, 0.25, 0.50, 1.0, 2.0, 4.0, 8.0, 16 µM
[2] = target: His-API5 (apoptosis inhibitor 5, residues 1-504, isoform 2), wild type (human); test: SPR; purified recombinant His-API5 and His-FGF2; who was immobilised is not given in the source
[3] = target: His-API5 3Mut (E184A/D185A/E190A) (human); test: as above
[4] = target: His-API5 (apoptosis inhibitor 5, residues 1-504, isoform 2), wild type; test: SPR; settings: concentration series 0.13, 0.25, 0.50, 1.0, 2.0, 4.0, 8.0, 16 µM

GST-UAP56 (human), sequence (Q13838 whole entry, the tested form may be a part): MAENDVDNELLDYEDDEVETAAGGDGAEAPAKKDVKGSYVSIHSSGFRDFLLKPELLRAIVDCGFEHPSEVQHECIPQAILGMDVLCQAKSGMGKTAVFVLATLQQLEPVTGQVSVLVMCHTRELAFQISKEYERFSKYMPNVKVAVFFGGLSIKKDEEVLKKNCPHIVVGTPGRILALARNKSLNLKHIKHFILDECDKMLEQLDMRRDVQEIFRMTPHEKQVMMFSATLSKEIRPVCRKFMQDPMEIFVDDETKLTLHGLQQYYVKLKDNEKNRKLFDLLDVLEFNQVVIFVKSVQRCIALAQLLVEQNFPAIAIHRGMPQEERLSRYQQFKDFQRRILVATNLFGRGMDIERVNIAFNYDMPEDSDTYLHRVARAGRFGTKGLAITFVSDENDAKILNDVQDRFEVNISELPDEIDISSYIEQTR
His-FGF2, LMW FGF2 (residues 135-288, C211S/C229S), sequence (P09038 135-288 C211S/C229S): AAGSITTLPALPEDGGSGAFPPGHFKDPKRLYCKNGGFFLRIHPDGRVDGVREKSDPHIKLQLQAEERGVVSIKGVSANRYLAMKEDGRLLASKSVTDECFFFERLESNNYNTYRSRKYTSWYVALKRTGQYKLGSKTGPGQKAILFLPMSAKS

| Substance | Kd (GST-UAP56 (human)) | Kd [2] | Kd [3] | other results |
| --- | --- | --- | --- | --- |
| API5–FGF2 complex (His-API5 with His-LMW FGF2) (from UniProt P09038 135-288) | 199 nM | – | – | – |
| His-API5 (apoptosis inhibitor 5, residues 1-504, isoform 2), wild type E184A; D185A; E190A | – | – | – | kon [1]: 2260 M⁻¹ s⁻¹ |
| His-FGF2 Mut (C211S/C229S/R262A/T263A/K271A) (from UniProt P09038 135-288) (natural protein) | – | 1510 nM | 17300 nM | – |
| His-FGF2, LMW FGF2 (residues 135-288, C211S/C229S) (from UniProt P09038) R262A; T263A; K271A | – | – | – | kon [4]: 1660 M⁻¹ s⁻¹ |

More lines, main results first:

| Kd (GST-UAP56 (human)) | Kd [2] | Kd [3] | Substance | other results |
| --- | --- | --- | --- | --- |
| 1370 nM | – | – | His-API5 (apoptosis inhibitor 5, residues 1-504, isoform 2), wild type (natural protein) | – |
| – | 676 nM | 4200 nM | His-FGF2, LMW FGF2 (residues 135-288, C211S/C229S) (from UniProt P09038 135-288) (natural protein) | – |
